Data: patent US20210179716A1

Experiments:
[1] = target: human CD47 on the cell surface (human); assay: cell binding to HT1080 tumor cells in a 1:10 mixture with red blood cells
[2] = target: human CD47 on the cell surface (human); assay: cell binding to red blood cells in a 1:10 mixture of HT1080 cells and red blood cells

EC50 [1]: < 0.1 nM
EC50 [2]: < 0.1 nM
Substance: monospecific anti-CD47 mAb 5F9 (antibody)
